Consider one variant from IntAct's records for PubMed 16865698.

The chains are these.
B1: Mothers against decapentaplegic homolog 4 (Homo sapiens), Q13485 (parent)
chain: MDNMSITNTPTSNDACLSIVHSLMCHRQGGESETFAKRAIESLVKKLKEKKDELDSLITAITTNGAHPSKCVTIQRTLDGRLQVAGRKGFPHVIYARLWRWPDLHKNELKHVKYCQYAFDLKCDSVCVNPYHYERVVSPGIDLSGLTLQSNAPSSMMVKDEYVHDFEGQPSLSTEGHSIQTIQHPPSNRASTETYSTPALLAPSESNATSTANFPNIPVASTSQPASILGGSHSEGLLQIASGPQPGQQQNGFTGQPATYHHNSTTTWTGSRTAPYTPNLPHHQNGHLQHHPPMPPHPGHYWPVHNELAFQPPISNHPAPEYWCSIAYFEMDVQVGETFKVPSSCPIVTVDGYVDPSGGDRFCLGQLSNVHRTEAIERARLHIGKGVQLECKGEGDVWVRCLSDHAVFVQSYYLDREAGRAPGDAVHKIYPSAYIKVFDLRQCHRQMQQQAATAQAAAAAQAAAVAGNIPGPGSVGGIAPAISLSAAAGIGVDDLRRLCILRMSFVKGWGPDYPRQSIKETPCWIEIHLHRALQLLDEVLHTMPIADPQPLD

In one experiment the parent is B1. To be noted: with fbw1a_human BTRC.
Regarding P102L, the “effect of a mutation on the interaction” value was “with no effect”.

In another experiment the parent is B1. To be noted: with skp2_human SKP2, Q13309.
Sequence of skp2_human SKP2, Q13309 (Q13309 whole entry): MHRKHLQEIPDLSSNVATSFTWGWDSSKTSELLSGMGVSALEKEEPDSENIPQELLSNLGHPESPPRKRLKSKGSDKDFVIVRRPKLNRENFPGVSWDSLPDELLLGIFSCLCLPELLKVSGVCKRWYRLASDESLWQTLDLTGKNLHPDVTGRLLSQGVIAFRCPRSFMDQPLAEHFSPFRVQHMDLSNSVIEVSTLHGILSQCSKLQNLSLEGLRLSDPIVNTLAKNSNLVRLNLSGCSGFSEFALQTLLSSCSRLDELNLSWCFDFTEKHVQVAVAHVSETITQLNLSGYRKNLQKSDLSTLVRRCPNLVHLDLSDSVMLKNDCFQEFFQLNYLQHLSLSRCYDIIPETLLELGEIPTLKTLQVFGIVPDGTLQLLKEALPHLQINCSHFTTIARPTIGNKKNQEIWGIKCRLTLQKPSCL
With P102L, the “effect of a mutation on the interaction” value is “disrupting interaction strength”.
